Experimental data: PMC8053128, “Structures of Neisseria gonorrhoeae MtrR-operator complexes reveal molecular mechanisms of DNA recognition and antibiotic resistance-conferring clinical mutations” (Nucleic Acids Research, 2021)

Biological target: the molecule itself
Test: crystal structure; MtrR dimer bound to a 21-mer operator oligoduplex (Semet-MtrR with rpoH, native MtrR with mtrCDE); hanging drop, 200 mM calcium acetate, 27% PEG 8000, 100 mM Tris pH 7.5

| Protein | binding result |
| --- | --- |
| Selenomethionine-derivatized MtrR (natural protein, selenomethionine-derivatized, MtrR, TetR-family transcriptional repressor of Neisseria gonorrhoeae, product of the mtrR gene; Same construct as m1 with methionines as selenomethionine; also called Semet-MtrR; not shown: His6, N-terminal, cleaved) MRKTKTEALKTKEHLMLAALETFYRKGIARTSLNEIAQAAGVTRGALYWHFKNKEDLFDALFQRICDDIENCIAQDAADAEGGSWTVFRHTLLHFFERLQSNDIHYKFHNILFLKCEHTEQNAAVIAIARKHQAIWREKITAVLTEAVENQDLADDLDKETAVIFIKSTLDGLIWRWFSSGESFDLGKTAPRIIGIMMDNLENHPCLRRK | binds |

Biological target: the molecule itself
Test: SEC; elution of purified point mutants compared with WT MtrR (Supplementary Figure S4); S200 column named in the purification

| Protein | stoichiometry N |
| --- | --- |
| MtrR(W49A) (natural protein, Neisseria gonorrhoeae, MtrR of Neisseria gonorrhoeae, point mutant; Made by site-directed mutagenesis of the mtrR-pMCSG7 construct; source: expressed from the pMCSG7 vector, purified (Ni-NTA, TEV cleavage, Ni-NTA, S200 size exclusion); not shown: His6, N-terminal, cleaved) MRKTKTEALKTKEHLMLAALETFYRKGIARTSLNEIAQAAGVTRGALYAHFKNKEDLFDALFQRICDDIENCIAQDAADAEGGSWTVFRHTLLHFFERLQSNDIHYKFHNILFLKCEHTEQNAAVIAIARKHQAIWREKITAVLTEAVENQDLADDLDKETAVIFIKSTLDGLIWRWFSSGESFDLGKTAPRIIGIMMDNLENHPCLRRK | 2 |
| MtrR wild type (natural protein, MtrR, TetR-family transcriptional repressor of Neisseria gonorrhoeae, product of the mtrR gene; also called WT MtrR; MtrR WT; source: expressed from the pMCSG7 vector, purified (Ni-NTA, TEV cleavage, Ni-NTA, S200 size exclusion); not shown: His6, N-terminal, cleaved) MRKTKTEALKTKEHLMLAALETFYRKGIARTSLNEIAQAAGVTRGALYWHFKNKEDLFDALFQRICDDIENCIAQDAADAEGGSWTVFRHTLLHFFERLQSNDIHYKFHNILFLKCEHTEQNAAVIAIARKHQAIWREKITAVLTEAVENQDLADDLDKETAVIFIKSTLDGLIWRWFSSGESFDLGKTAPRIIGIMMDNLENHPCLRRK | 2 |
| MtrR(Y48F) (natural protein, Neisseria gonorrhoeae, MtrR of Neisseria gonorrhoeae, point mutant; Made by site-directed mutagenesis of the mtrR-pMCSG7 construct; source: expressed from the pMCSG7 vector, purified (Ni-NTA, TEV cleavage, Ni-NTA, S200 size exclusion); not shown: His6, N-terminal, cleaved) MRKTKTEALKTKEHLMLAALETFYRKGIARTSLNEIAQAAGVTRGALFWHFKNKEDLFDALFQRICDDIENCIAQDAADAEGGSWTVFRHTLLHFFERLQSNDIHYKFHNILFLKCEHTEQNAAVIAIARKHQAIWREKITAVLTEAVENQDLADDLDKETAVIFIKSTLDGLIWRWFSSGESFDLGKTAPRIIGIMMDNLENHPCLRRK | 2 |
| MtrR(T11A) (natural protein, Neisseria gonorrhoeae, MtrR of Neisseria gonorrhoeae, point mutant; Made by site-directed mutagenesis of the mtrR-pMCSG7 construct; source: expressed from the pMCSG7 vector, purified (Ni-NTA, TEV cleavage, Ni-NTA, S200 size exclusion); not shown: His6, N-terminal, cleaved) MRKTKTEALKAKEHLMLAALETFYRKGIARTSLNEIAQAAGVTRGALYWHFKNKEDLFDALFQRICDDIENCIAQDAADAEGGSWTVFRHTLLHFFERLQSNDIHYKFHNILFLKCEHTEQNAAVIAIARKHQAIWREKITAVLTEAVENQDLADDLDKETAVIFIKSTLDGLIWRWFSSGESFDLGKTAPRIIGIMMDNLENHPCLRRK | 2 |
| MtrR(G45A) (natural protein, Neisseria gonorrhoeae, MtrR of Neisseria gonorrhoeae, point mutant; Made by site-directed mutagenesis of the mtrR-pMCSG7 construct; source: expressed from the pMCSG7 vector, purified (Ni-NTA, TEV cleavage, Ni-NTA, S200 size exclusion); not shown: His6, N-terminal, cleaved) MRKTKTEALKTKEHLMLAALETFYRKGIARTSLNEIAQAAGVTRAALYWHFKNKEDLFDALFQRICDDIENCIAQDAADAEGGSWTVFRHTLLHFFERLQSNDIHYKFHNILFLKCEHTEQNAAVIAIARKHQAIWREKITAVLTEAVENQDLADDLDKETAVIFIKSTLDGLIWRWFSSGESFDLGKTAPRIIGIMMDNLENHPCLRRK | 2 |
| MtrR(W49F) (natural protein, Neisseria gonorrhoeae, MtrR of Neisseria gonorrhoeae, point mutant; Made by site-directed mutagenesis of the mtrR-pMCSG7 construct; source: expressed from the pMCSG7 vector, purified (Ni-NTA, TEV cleavage, Ni-NTA, S200 size exclusion); not shown: His6, N-terminal, cleaved) MRKTKTEALKTKEHLMLAALETFYRKGIARTSLNEIAQAAGVTRGALYFHFKNKEDLFDALFQRICDDIENCIAQDAADAEGGSWTVFRHTLLHFFERLQSNDIHYKFHNILFLKCEHTEQNAAVIAIARKHQAIWREKITAVLTEAVENQDLADDLDKETAVIFIKSTLDGLIWRWFSSGESFDLGKTAPRIIGIMMDNLENHPCLRRK | 2 |
| MtrR(T43S) (natural protein, Neisseria gonorrhoeae, MtrR of Neisseria gonorrhoeae, point mutant; Made by site-directed mutagenesis of the mtrR-pMCSG7 construct; source: expressed from the pMCSG7 vector, purified (Ni-NTA, TEV cleavage, Ni-NTA, S200 size exclusion); not shown: His6, N-terminal, cleaved) MRKTKTEALKTKEHLMLAALETFYRKGIARTSLNEIAQAAGVSRGALYWHFKNKEDLFDALFQRICDDIENCIAQDAADAEGGSWTVFRHTLLHFFERLQSNDIHYKFHNILFLKCEHTEQNAAVIAIARKHQAIWREKITAVLTEAVENQDLADDLDKETAVIFIKSTLDGLIWRWFSSGESFDLGKTAPRIIGIMMDNLENHPCLRRK | 2 |
| MtrR(R44A) (natural protein, Neisseria gonorrhoeae, MtrR of Neisseria gonorrhoeae, point mutant; Made by site-directed mutagenesis of the mtrR-pMCSG7 construct; source: expressed from the pMCSG7 vector, purified (Ni-NTA, TEV cleavage, Ni-NTA, S200 size exclusion); not shown: His6, N-terminal, cleaved) MRKTKTEALKTKEHLMLAALETFYRKGIARTSLNEIAQAAGVTAGALYWHFKNKEDLFDALFQRICDDIENCIAQDAADAEGGSWTVFRHTLLHFFERLQSNDIHYKFHNILFLKCEHTEQNAAVIAIARKHQAIWREKITAVLTEAVENQDLADDLDKETAVIFIKSTLDGLIWRWFSSGESFDLGKTAPRIIGIMMDNLENHPCLRRK | 2 |
| MtrR(T43A) (natural protein, Neisseria gonorrhoeae, MtrR of Neisseria gonorrhoeae, point mutant; Made by site-directed mutagenesis of the mtrR-pMCSG7 construct; source: expressed from the pMCSG7 vector, purified (Ni-NTA, TEV cleavage, Ni-NTA, S200 size exclusion); not shown: His6, N-terminal, cleaved) MRKTKTEALKTKEHLMLAALETFYRKGIARTSLNEIAQAAGVARGALYWHFKNKEDLFDALFQRICDDIENCIAQDAADAEGGSWTVFRHTLLHFFERLQSNDIHYKFHNILFLKCEHTEQNAAVIAIARKHQAIWREKITAVLTEAVENQDLADDLDKETAVIFIKSTLDGLIWRWFSSGESFDLGKTAPRIIGIMMDNLENHPCLRRK | 2 |
| MtrR(H50A) (natural protein, Neisseria gonorrhoeae, MtrR of Neisseria gonorrhoeae, point mutant; Made by site-directed mutagenesis of the mtrR-pMCSG7 construct; source: expressed from the pMCSG7 vector, purified (Ni-NTA, TEV cleavage, Ni-NTA, S200 size exclusion); not shown: His6, N-terminal, cleaved) MRKTKTEALKTKEHLMLAALETFYRKGIARTSLNEIAQAAGVTRGALYWAFKNKEDLFDALFQRICDDIENCIAQDAADAEGGSWTVFRHTLLHFFERLQSNDIHYKFHNILFLKCEHTEQNAAVIAIARKHQAIWREKITAVLTEAVENQDLADDLDKETAVIFIKSTLDGLIWRWFSSGESFDLGKTAPRIIGIMMDNLENHPCLRRK | 2 |
